Literature values in patent publication US20250057928A1, “VACCINE COMPOSITION FOR INDUCING ANTI-IL-23 ANTIBODY” (OSAKA UNIVERSITY, priority 2021, published 2025).

Biological target: T1, p19 subunit (Homo sapiens, UniProt Q9NPF7)
T1 sequence (Q9NPF7 20-189): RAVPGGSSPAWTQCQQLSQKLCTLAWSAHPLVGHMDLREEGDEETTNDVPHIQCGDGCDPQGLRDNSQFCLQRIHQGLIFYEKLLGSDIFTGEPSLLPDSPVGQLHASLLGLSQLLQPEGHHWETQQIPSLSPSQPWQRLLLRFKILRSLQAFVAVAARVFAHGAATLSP
T1 sequence (P29460 23-328 partner): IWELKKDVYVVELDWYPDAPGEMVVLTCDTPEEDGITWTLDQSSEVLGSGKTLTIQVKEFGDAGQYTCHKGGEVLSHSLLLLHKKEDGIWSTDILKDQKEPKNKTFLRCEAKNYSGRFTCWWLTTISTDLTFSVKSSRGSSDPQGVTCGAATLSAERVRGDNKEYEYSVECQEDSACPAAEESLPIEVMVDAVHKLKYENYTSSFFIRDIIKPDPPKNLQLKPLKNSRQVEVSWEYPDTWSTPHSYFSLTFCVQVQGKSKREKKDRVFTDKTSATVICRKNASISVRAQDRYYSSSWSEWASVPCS
Details: compared with Ustekinumab; cited from earlier work

Substance: Risankizumab
- PASI90 (almost complete disappearance of psoriasis lesion) rate: about twice as high as that of Ustekinumab
